These results are taken from the RNAGym collection of RNA variant scans (doi:10.7554/elife.80360).

The chains are these.
B1: Hairpin Ribozyme (parent)
chain: GUCCUCUUUCACGUGCGCGUGAAAGAGAGAAGUGAACCAGAGAAACACACGUUGUGGUAUAUUACCUGGUA

Variants of B1 are the subject of this data set. Nature of the data set: self-cleavage, relative activity (ratio to wild type); higher = more cleavage; co-transcriptional.
For the variant A47G C48G, the self-cleavage was determined as 0.121.
The result for A26U U53A reads 0.474; that for C46A A49C, 0.156; that for G19U A71G, 1.02.
Consider G32U A43U, for which the self-cleavage was found to be 0.148.
To C3A U20C belongs 0.728; to G17C G42A, 0.176.
On to G54C G57C, for which the self-cleavage came to 0.155.
With A43G A45G, the self-cleavage was found to be 0.104.
To A64G U67G belongs 0.159; to U62A A64U, 0.197; to C6A U20C, 0.556.
To C12A A36G belongs 0.956.
With G21C A36G, the self-cleavage was found to be 0.779.
The result for G40C C46A reads 0.155; that for C38G U58A, 0.139; that for C38U A45C, 0.108.
For the variant G19U A59U, the self-cleavage came to 0.213.
Turning to G13C G34A, the self-cleavage was found to be 0.915.
G42C A49C: the self-cleavage came to 0.215.
To U2G U52A belongs 0.33; to C46A C50U, 0.111; to C18U A45C, 0.218.
To C12A A49G belongs 0.474; to U33C U62C, 0.0427; to G1C U70C, 0.155.
To A22G C65U belongs 0.395.
As to C16A G17C, the self-cleavage came to 0.85.
On to U58G U67C, for which the self-cleavage was 0.0792.
To A31C U62A belongs 0.12; to U53C A59U, 0.166.
Take G51U A59C: the self-cleavage amounted to 0.103.
Regarding A11U A59G, the self-cleavage worked out at 0.0747.
Consider G42C C46A, for which the self-cleavage is 0.166.
To C6G G13A belongs 0.45; to U33C G54C, 0.163.
To A24C C37G belongs 0.242; to C46U A47G, 0.0613.
The result for G56A U70C reads 0.247; that for C12U U53G, 0.677.
Regarding G25C G34C, the self-cleavage is 0.967.
The result for U20C C38U reads 0.415.
In the case of G34U U67G, the self-cleavage is 0.658.
To A30U A44C belongs 0.0664; to C6A U70C, 0.618.
For the variant A31G A71C, the self-cleavage worked out at 1.05.
Turning to C6G G34C, the self-cleavage is 1.03.
For the variant U9A C10U, the self-cleavage was 0.455.
To G29A A43G belongs 0.205; to U7C A23G, 0.6.
To G27U A36G belongs 0.393; to A11G C66U, 0.619.
The result for A43U U67C reads 0.109.
As to A36U C38U, the self-cleavage amounted to 0.112.
To G1A G40A belongs 0.199; to G15C G19C, 0.786; to A36U A47U, 0.141.
Regarding U8A G19A, the self-cleavage came out at 0.558.
As to A35G A41U, the self-cleavage was determined as 1.28.
The result for C38A G56U reads 0.179.
To G25A A28C belongs 0.394.
The result for C50G U52G reads 0.312.
Turning to C6G U9A, the self-cleavage was determined as 0.274.
The result for C6G U9G reads 0.208.
Turning to A30C A41C, the self-cleavage stood at 0.315.
To G13C U33G belongs 0.207.
Consider U8A C18G, for which the self-cleavage is 0.524.
Turning to A22C G27U, the self-cleavage was 0.411.
In the case of A47U U58A, the self-cleavage was determined as 0.106.
To G1C A64U belongs 0.107; to C12G G57A, 0.152; to G57C A64C, 0.178.
A30U A45C: the self-cleavage turned out to be 0.0664.
To A28C G57U belongs 0.0228.
Regarding U2C C4U, the self-cleavage was determined as 0.0249.
As for U2C C4A, the self-cleavage stood at 0.1.
Take U7G U53G: the self-cleavage was determined as 0.641.
To A26C A49U belongs 0.239.
To U8G C38U belongs 0.548.
To A22C G42C belongs 0.291.
Regarding G51U G68C, the self-cleavage amounted to 0.274.
With G56A G57C, the self-cleavage stood at 0.128.
The result for U7C A47G reads 0.0534; that for G15U A30G, 0.122.
In the case of C3U A49C, the self-cleavage was found to be 0.112.
Regarding C16U A71G, the self-cleavage came out at 1.08.
The result for C10U C37G reads 0.299.
The result for A31U C48G reads 0.0916.
To G13A G21U belongs 0.742.
For C38G A64U, the self-cleavage is 0.112.
To U20A A64G belongs 0.562.
To G29A A71U belongs 0.126; to A28U U52G, 0.374.
Take C4G U70C: the self-cleavage stood at 0.214.
The result for U5A U67G reads 0.112; that for C37G U60C, 0.331; that for A44C U60C, 0.0498.
U33G G42A: the self-cleavage was found to be 0.0778.
With A24C A47G, the self-cleavage is 0.113.
As for A36G A47U, the self-cleavage was determined as 0.127.
Consider A11U A31C, for which the self-cleavage amounted to 0.152.
For the variant G32C A44G, the self-cleavage was found to be 0.137.
To A28U A30C belongs 0.167.
Consider A28U A30G, for which the self-cleavage came out at 0.0577.
To G19C A35U belongs 0.574; to U9G G13U, 0.678.
To G13C U60A belongs 0.579; to A11G A49G, 0.577.
To G42U U62G belongs 0.22; to U7A G54C, 0.349; to A24U G68C, 0.0904.
For U9G A44C, the self-cleavage amounted to 0.0667.
In the case of U53G G57U, the self-cleavage was determined as 0.164.
To U8A U67G belongs 0.237; to C12G A26G, 0.75.
The result for A47G U52G reads 0.259; that for A39U U52C, 0.378.
The result for C10A U58G reads 0.592; that for G25A C46A, 0.105.
Regarding U2A U55A, the self-cleavage came out at 0.103.
The result for U7C C48A reads 0.114; that for C50G A59G, 0.211; that for C18U G69U, 0.272.
The result for U20G A64C reads 0.184.
To A22G U67C belongs 0.231.
Take C18U A35C: the self-cleavage was found to be 0.968.
For the variant G21U U33C, the self-cleavage came to 0.192.
On to A64U G69C, for which the self-cleavage worked out at 0.259.
As to A31C A36U, the self-cleavage came out at 0.0851.
As to G42C G54U, the self-cleavage was determined as 0.17.
To U14A C46G belongs 0.108.
Regarding U5A C38G, the self-cleavage was determined as 0.0942.
For the variant U7C A24U, the self-cleavage amounted to 0.707.
The result for G25A A64G reads 0.469.
The result for C16A A64G reads 0.455; that for G51C U52C, 1.16.
Consider C37A G56A, for which the self-cleavage came to 0.156.
The result for A36U A41C reads 0.654; that for G25C G42A, 0.174.
Turning to G13U A28G, the self-cleavage worked out at 0.725.
To A47U G68C belongs 0.26; to U33A U58C, 0.0877; to G15C C38U, 0.6.
As to C10U G56U, the self-cleavage is 0.162.
As to A36G U67A, the self-cleavage turned out to be 0.195.
The result for C10U G57A reads 0.249.
Regarding U5G A26C, the self-cleavage is 0.68.
To G27U C50G belongs 0.175; to C3G U8G, 0.204.
With G25C U55G, the self-cleavage worked out at 0.13.
The result for A11C A28G reads 0.951; that for G13A A59C, 0.196; that for U2A U63G, 0.0633.
The result for G40C U63C reads 0.164; that for G34A G57C, 0.247.
To C3A G34U belongs 1.34; to G21C C66G, 0.159.
With C37A U62A, the self-cleavage turned out to be 0.133.
On to C16A U60A, for which the self-cleavage came to 0.767.
Turning to G32U G51A, the self-cleavage came out at 0.179.
A30G A35C: the self-cleavage is 0.141.
For G15A U62A, the self-cleavage was found to be 0.177.
Regarding C12A G15A, the self-cleavage turned out to be 0.801.
As for G29A A41C, the self-cleavage worked out at 0.053.
To A49G G51U belongs 0.532; to G17C G32C, 0.183.
As for G40A U62G, the self-cleavage was found to be 0.133.
